Bridges are numbered along the chain shown (N, C = ends). Where no end group is shown, it is not given here. [ ]: non-standard residue; d: D form. The star is where a group is joined. Acetyl(2-(4-imidazolyl)) = O=C(Cc1c[nH]cn1)*; Aib = CC(C)(N)C(=O)O
T1: human GIP receptor (human, UniProt P48546 22-466)
T1 sequence (looked up): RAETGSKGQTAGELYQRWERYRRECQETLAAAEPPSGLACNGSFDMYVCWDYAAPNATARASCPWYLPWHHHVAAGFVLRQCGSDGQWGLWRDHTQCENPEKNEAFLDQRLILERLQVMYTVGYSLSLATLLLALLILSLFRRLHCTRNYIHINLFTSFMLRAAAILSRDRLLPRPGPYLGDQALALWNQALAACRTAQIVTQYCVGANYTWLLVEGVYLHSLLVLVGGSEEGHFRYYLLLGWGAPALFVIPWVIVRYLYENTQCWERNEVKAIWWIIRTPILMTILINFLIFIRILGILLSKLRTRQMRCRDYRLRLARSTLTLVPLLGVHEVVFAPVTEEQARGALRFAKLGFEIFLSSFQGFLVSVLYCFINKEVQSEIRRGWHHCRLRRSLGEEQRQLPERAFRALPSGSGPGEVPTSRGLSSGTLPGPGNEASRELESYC


Key:
Assay in all cases: cell-based or functional assay
[1] = molecular target: human GLP-1 receptor (human, UniProt P43220 24-463)
[2] = molecular target: T1, human GIP receptor
[3] = molecular target: human GCG receptor (human, UniProt P47871 26-477)
Chain of human GCG receptor (P47871 26-477): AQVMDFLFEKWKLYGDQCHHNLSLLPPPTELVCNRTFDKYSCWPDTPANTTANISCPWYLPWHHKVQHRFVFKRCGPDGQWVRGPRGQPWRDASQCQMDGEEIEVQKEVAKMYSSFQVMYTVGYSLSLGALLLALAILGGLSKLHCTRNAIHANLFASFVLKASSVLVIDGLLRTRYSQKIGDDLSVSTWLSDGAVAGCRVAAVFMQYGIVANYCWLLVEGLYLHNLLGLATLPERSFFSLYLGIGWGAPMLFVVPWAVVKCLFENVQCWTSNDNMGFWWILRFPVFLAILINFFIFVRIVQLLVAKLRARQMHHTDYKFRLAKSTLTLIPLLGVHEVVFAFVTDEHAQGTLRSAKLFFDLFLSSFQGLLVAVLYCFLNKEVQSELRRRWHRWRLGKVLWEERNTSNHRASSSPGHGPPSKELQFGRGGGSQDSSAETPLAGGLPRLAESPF

Binder	In vitro activity relative to native peptide (%) vs. GLP-1 [1] [%]	In vitro activity relative to native peptide (%) vs. GIP [2] [%]	In vitro activity relative to native peptide (%) vs. Glucagon [3] [%]
H[Aib]QGTFTSDVSSYLLGQQQKEFIAWLVKGGGPSSGAPPPSC [triple agonist of SEQ ID NO: 5]	42.1	< 0.1	< 0.1
H[Aib]QGTFTSDYSIAMDEIHQKDFVNWLLNTKC (bridge 16-20) [triple agonist of SEQ ID NO: 35]	7.5	1.3	< 0.1
H[Aib]EGTFTSDYSIAMDEIHQKDFVDWLLAEC (bridge 16-20) [triple agonist of SEQ ID NO: 54]	30.6	0.1	1.4
H[Aib]QGTFTSDYSIAMDEIHQKDFVNWLLAQC (bridge 16-20) [triple agonist of SEQ ID NO: 55]	27.1	2.4	0.7
H[Aib]QGTFTSDVSSYLLGQQQKEFIAWLVKGC [triple agonist of SEQ ID NO: 4]	8.5	< 0.1	< 0.1
H[Aib]QGTFTSDYSKYLDEKRQKEFVQWLLNTC (bridge 16-20) [triple agonist of SEQ ID NO: 51]	14.4	0.1	2
H[Aib]QGTFTSDYSKYLDEKRQKEFVQWLLDTC (bridge 16-20) [triple agonist of SEQ ID NO: 52]	44.1	0.3	7.5
H[Aib]EGTFTSDYSIAMDEIHQKDFVNWLLAQC (bridge 16-20) [triple agonist of SEQ ID NO: 53]	161	1.3	8.4
H[Aib]QGTFTSDYSKYLDGQHAQCFVAWLLAGGGPSSGAPPPS [triple agonist of SEQ ID NO: 39]	13.9	< 0.1	0.53
H[Aib]QGTFTSDYSKYLDEKRAKEFVQWLLDHHPSSGQPPPSC (bridge 16-20) [triple agonist of SEQ ID NO: 50]	67.4	2.7	50.5
H[Aib]QGTFTSDYSKYLCEKRQKEFVQWLLNGGPSSGAPPPSG (bridge 16-20) [triple agonist of SEQ ID NO: 36]	37.4	0.2	0.39
H[Aib]QGTFTSDYSKYLDEKRQKEFVNWLLAQC (bridge 16-20) [triple agonist of SEQ ID NO: 56]	57.9	0.8	4.9
H[Aib]QGTFTSDYSKYLDECRQKEFVQWLLNGGPSSGAPPPSG (bridge 16-20) [triple agonist of SEQ ID NO: 37]	236	2.2	6.21
HGQGTFTSDCSKQLDGQAAQEFVAWLLAGGPSSGAPPPS [triple agonist of SEQ ID NO: 44]	1.3	< 0.1	< 0.1
HGQGTFTSDCSKYLDEQHAQEFVAWLLAGGPSSGAPPPS [triple agonist of SEQ ID NO: 46]	1.4	< 0.1	< 0.1
HGQGTFTSDCSKYMDGQAAQDFVAWLLAGGPSSGAPPPS [triple agonist of SEQ ID NO: 45]	6.6	< 0.1	< 0.1
HGQGTFTSDCSKYLDGQRAQEFVAWLLAGGPSSGAPPPS [triple agonist of SEQ ID NO: 47]	2.4	< 0.1	< 0.1
HGQGTFTSDCSKYLDGQRAQDFVNWLLAGGPSSGAPPPS [triple agonist of SEQ ID NO: 48]	1.5	< 0.1	< 0.1
H[Aib]QGTFTSDVSSYLDGQAAKEFVAWLLKGC [triple agonist of SEQ ID NO: 6]	17	< 0.1	< 0.1
H[Aib]QGTFTSDKSKYLDERACQDFVQWLLDGGPSSGAPPPS [triple agonist of SEQ ID NO: 40]	75.2	< 0.1	< 0.1
H[Aib]QGTFTSDYSKYLDEKRQKEFVNWLLAQKC (bridge 16-20) [triple agonist of SEQ ID NO: 34]	19.1	0.6	0.92
[Acetyl(2-(4-imidazolyl))][Aib]QGTFTSDYSICMDEIHQKDFVNWLLNTK (bridge 16-20; not fully specified) [triple agonist of SEQ ID NO: 49]	29.8	3.3	< 0.1
H[Aib]QGTFTSDVSSYLDGQAAKEFIAWLVKGC [triple agonist of SEQ ID NO: 1]	3.2	< 0.1	< 0.1
Y[Aib]QGTFTSDYSKYLDEKRAKEFVQWLLDHHPSSGQPPPSC (bridge 16-20) [triple agonist of SEQ ID NO: 42]	33.9	7.8	206
Y[Aib]QGTFTSDYSKYLDEKRAKEFVQWLLDHHCSSGQPPPS (bridge 16-20) [triple agonist of SEQ ID NO: 43]	12.6	3.7	88.4
H[Aib]QGTFTSDKSKYLDECAAQDFVQWLLDGGPSSGAPPPS [triple agonist of SEQ ID NO: 41]	34.3	< 0.1	< 0.1
[Acetyl(2-(4-imidazolyl))][Aib]QGTFTSDKSSYLDERAAQDFVQWLLDGGPSSGAPPPSS (not fully specified) [triple agonist of SEQ ID NO: 38]	2.3	1	1

— patent US20230302148A1, “PHARMACEUTICAL COMPOSITION COMPRISING LONG-ACTING CONJUGATE OF TRIPLE GLUCAGON/GLP-1/GIP RECEPTOR AGONIST” (HANMI PHARM. CO., LTD., priority 2020, published 2023)
